The subject of this data set is 151AmF-GFP (azide-exposed GFP, protein part of RGG/DGG) (synthetic (codon-optimized GFP, expressed in E. coli NiCo21(DE3))). The data set can be described thus: EMSA (SDS-PAGE gel shift). To be noted: clicked to AmF-GFP, 59 pmol GFP + 59 pmol guide, SPAAC at 4 C for 1.5 h, then equal volume of target, 20 min at room temperature, 15% SDS-PAGE, protein stored in 50 mM HEPES …. (In general: In EMSA bound probe runs differently from free probe, usually more slowly.)

For “TAACCCTAACCCTAACCCTAACCCTA / GCUAGAUCCGUAGGGUUAGGGUUAGGGUUAGGGUUAACCUCCGACC [Tel26-DBCO-DNA guide + Target RNA [Tel26]]”, the binding signal (DGG (covalent DNA guide), DBCO on guide DNA) was determined as 86 % bound.
“UAACCCUAACCCUAACCCUAACCCUA / GCUAGAUCCGUAGGGUUAGGGUUAGGGUUAGGGUUAACCUCCGACC [Tel26-DBCO-RNA guide + Target RNA [Tel26]]”: the binding signal (RGG (covalent RNA guide), DBCO on guide RNA) is 88 % bound.
